Results on one molecule are retold here after PMC6211770, “Structure-guided disruption of the pseudopilus tip complex inhibits the Type II secretion in Pseudomonas aeruginosa” (PLoS Pathogens, 2018).

The assay has as its target T1, XcpX (29–313), soluble form (P. aeruginosa, UniProt Q00518 29-313).
T1 construct: minor pseudopilin XcpX (GspK) of Pseudomonas aeruginosa, soluble form, residues 29-313; buffers with XcpX held 1 mM CaCl2; The XcpVWX complex was digested in situ with chymotrypsin before crystallisation; also called XcpX^(GspK); GspK; source: E. coli BL21 (DE3), purified (Ni2+-NTA, TEV digestion, Superdex 75); not shown: thioredoxin (Trx), N-terminal, cleaved
T1 sequence: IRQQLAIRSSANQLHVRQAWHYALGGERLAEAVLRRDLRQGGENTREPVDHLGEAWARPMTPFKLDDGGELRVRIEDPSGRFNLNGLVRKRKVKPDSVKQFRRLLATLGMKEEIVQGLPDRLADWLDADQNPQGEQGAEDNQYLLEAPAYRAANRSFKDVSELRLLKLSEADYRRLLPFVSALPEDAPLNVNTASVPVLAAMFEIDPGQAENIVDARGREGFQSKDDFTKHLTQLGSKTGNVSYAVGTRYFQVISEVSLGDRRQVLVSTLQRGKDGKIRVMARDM
Put plainly: SAXS with inline SEC; XcpUVWX complex at 6.15 mg/ml in 25 mM HEPES pH 7.0, 150 mM NaCl, 5% glycerol, 2 mM DTT. To be noted: both partners purified.

B1: XcpV (28–129), soluble form (domain or fragment)
chain: SASARSLQNASRLEDKTLAMWIADNRLNELQLEQTPPSSGRNQGELEFAGRRWEWRTQVDSTAEQDMRRVIVWVAAKPLGRERGSIEERAAARLVGFLGSQP
notes: minor pseudopilin XcpV (GspI) of Pseudomonas aeruginosa, soluble form, residues 28-129; The XcpVWX complex was digested in situ with chymotrypsin before crystallisation; the chains in PDB 5VTM may be shorter; also called XcpV^(GspI); GspI; source: E. coli BL21 (DE3), purified (Ni2+-NTA, TEV digestion, Superdex 75); not shown: thioredoxin (Trx), N-terminal, cleaved
On to B1, for which the binding result is “binds”.
